Measurements taken from patent US20260242839A1, “GLYCOSIDE PRODUCT BIOSYNTHESIS AND RECOVERY” (Manus Bio Inc., priority 2023, published 2026).

Key:
steviol glycoside [1] = assay: steviol glycoside bioconversion by E. coli expressing individual mutations of UGT SEQ ID NO: 13; type: cell-based; details: fold improvement of % conversion vs parent UGT SEQ ID NO: 13; stevia leaf extract and glucose fed; 37° C., 48 hr
Description: A UGT enzyme referred to as MbUGT1,2 is described in U.S. Pat. No. 10,743,567, which is hereby incorporated by reference. An engineered version of MbUGT1,2 (SEQ ID NO: 13) is described in US 2020/0087692, which is hereby incorporated by reference in its entirety. The UGT enzyme of SEQ ID NO: 13 was further engineered to improve activity for steviol glycoside bioconversion. […] Fold improvement is with respect to % steviol glycoside conversion of the parent UGT enzyme (SEQ ID NO: 13). SEQ ID NO: 14 has the following mutations from SEQ ID NO: 13: G5N, F186T, V397S. Stevia leaf extract and glucose were fed to the bioconversion strains. Bioconversion took place at 37° C. for 48 hr. Data were quantified by reverse phase LC DAD to quantify conversion of steviol glycosides.
(§1) Fold improvement (FI) is with respect to % steviol glycoside conversion.

steviol glycoside [2] = assay: steviol glycoside bioconversion by E. coli expressing individual mutations of UGT SEQ ID NO: 15; type: cell-based; details: fold improvement of % conversion vs parent UGT SEQ ID NO: 15; stevia leaf extract and glucose fed; 37° C., 48 hr
Protocol: Fold improvement is with respect to % steviol glycoside conversion of the parent UGT enzyme of SEQ ID NO: 15. SEQ ID NO: 16 has the following mutations from SEQ ID NO: 15: M152A, S153A. Stevia leaf extract and glucose were fed to the bioconversion strains. Bioconversion took place at 37° C. for 48 hr. Data were quantified by reverse phase LC DAD to quantify conversion of steviol glycosides.
as §1

B1: S20E: mutation to UGT enzyme of SEQ ID NO: 13 (protein)
chain: MATKGSSGMSLAERFWLTLERSSLVVGRSCVEFEPETVPLLSTLRGKPITFLGLMPPLHEGRREDGEDATVRWLDAQPAKSVVYVALGSEVPLGVEKVHELALGLELAGTRFLWALRKPTGVSDADLLPAGFEERTRGRGVVATRWVPQMSILAHAAVGAFLTHCGWNSTIEGLMFGHPLIMLPIFGDQGPNARLIEAKNAGLQVARNDGDGSFDREGVAAAIRAVAVEEESSKVFQAKAKKLQEIVADMACHERYIDGFIQQLRSYKDDSGYSSSYAAAAGMHVVICPWLAFGHLLPCLDLAQRLASRGHRVSFVSTPRNISRLPPVRPALAPLVAFVALPLPRVEGLPDGAESTNDVPHDRPDMVELHRRAFDGLAAPFSEFLGTACADWVIVDVFHHWAAAAALEHKVPCAMMLLGSAEMIASIADERLEHAETESPAAAGQGRPAAAPTFEVARMKLIR
Steviol glycoside [1]
  FI %Stevioside→rebE: 1.2
  FI %rebA→rebD: 1.1

B2: M55L: mutation to UGT enzyme of SEQ ID NO: 13 (protein)
chain: MATKGSSGMSLAERFWLTLSRSSLVVGRSCVEFEPETVPLLSTLRGKPITFLGLLPPLHEGRREDGEDATVRWLDAQPAKSVVYVALGSEVPLGVEKVHELALGLELAGTRFLWALRKPTGVSDADLLPAGFEERTRGRGVVATRWVPQMSILAHAAVGAFLTHCGWNSTIEGLMFGHPLIMLPIFGDQGPNARLIEAKNAGLQVARNDGDGSFDREGVAAAIRAVAVEEESSKVFQAKAKKLQEIVADMACHERYIDGFIQQLRSYKDDSGYSSSYAAAAGMHVVICPWLAFGHLLPCLDLAQRLASRGHRVSFVSTPRNISRLPPVRPALAPLVAFVALPLPRVEGLPDGAESTNDVPHDRPDMVELHRRAFDGLAAPFSEFLGTACADWVIVDVFHHWAAAAALEHKVPCAMMLLGSAEMIASIADERLEHAETESPAAAGQGRPAAAPTFEVARMKLIR
Steviol glycoside [1]
  FI %Stevioside→rebE: 1.1
  FI %rebA→rebD: 1.0

B3: K99F: mutation to UGT enzyme of SEQ ID NO: 15 (protein)
chain: MARRTKNSSGMSLAERFWLTLSRSSLVVGRSCVEFEPETVPLLSTLRGKPITFLGLMPPLPEGRREDGEDATVRWLDAQPAKSVVYVALGSEVPLGVEFVHELALGLELAGTRFLWALRKPTGVSDADLLPAGFEERTRGRGVVATRWVPQMSILAHAAVGAFLTHCGWNSTIEGLMFGHPLIMLPITGDQGPNARLIEAKNAGLQVARNDGDGSFDREGVAAAIRAVAVEEESSKVFQEKAKKLQEIVADMACHERYIDGFIQQLRSYKDDSGYSSSYAAAAGMHVVICPWLAFGHLLPCLDLAQRLASRGHRVSFVSTPRNISRLPPVRPALAPLVAFVALPLPRVEGLPDGAESTNDVPHDRPDMVELHRRAFDGLAAPFSEFLGTACADWVIVDSFHHWAAAAALEHKVPCAMMFLGSAEMIASIADERLEHAETESPAAAGQGRPAAAPTFEVARMKLIR
Steviol glycoside [2]
  FI % Stevioside −> rebE: 1.08
  FI % rebA −> rebD: 1.08

B4: S310T: mutation to UGT enzyme of SEQ ID NO: 15 (protein)
chain: MARRTKNSSGMSLAERFWLTLSRSSLVVGRSCVEFEPETVPLLSTLRGKPITFLGLMPPLPEGRREDGEDATVRWLDAQPAKSVVYVALGSEVPLGVEKVHELALGLELAGTRFLWALRKPTGVSDADLLPAGFEERTRGRGVVATRWVPQMSILAHAAVGAFLTHCGWNSTIEGLMFGHPLIMLPITGDQGPNARLIEAKNAGLQVARNDGDGSFDREGVAAAIRAVAVEEESSKVFQEKAKKLQEIVADMACHERYIDGFIQQLRSYKDDSGYSSSYAAAAGMHVVICPWLAFGHLLPCLDLAQRLATRGHRVSFVSTPRNISRLPPVRPALAPLVAFVALPLPRVEGLPDGAESTNDVPHDRPDMVELHRRAFDGLAAPFSEFLGTACADWVIVDSFHHWAAAAALEHKVPCAMMFLGSAEMIASIADERLEHAETESPAAAGQGRPAAAPTFEVARMKLIR
Steviol glycoside [2]
  FI % Stevioside −> rebE: 1.04
  FI % rebA −> rebD: 1.04
